Biological target: Fcγ receptors on THP-1 cells (human (endogenous in THP-1)) (UniProt P12314)
Assay: retention of opsonized erythrocytes on adherent THP-1 cells

Chain of UniProt P12314 (P12314 16-374): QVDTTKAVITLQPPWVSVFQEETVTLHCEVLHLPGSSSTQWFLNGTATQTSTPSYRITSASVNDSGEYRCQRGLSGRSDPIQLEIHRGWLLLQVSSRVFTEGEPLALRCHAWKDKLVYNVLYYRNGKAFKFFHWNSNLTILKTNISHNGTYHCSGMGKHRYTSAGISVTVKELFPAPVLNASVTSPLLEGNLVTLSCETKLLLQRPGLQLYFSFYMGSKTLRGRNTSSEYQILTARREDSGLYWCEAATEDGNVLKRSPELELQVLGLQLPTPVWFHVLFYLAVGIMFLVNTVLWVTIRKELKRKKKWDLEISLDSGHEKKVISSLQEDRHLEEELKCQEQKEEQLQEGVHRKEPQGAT

| concentration at which erythrocyte retention occurred | Substance |
| --- | --- |
| 5 µg/mL | single-cleaved rabbit antihuman erythrocyte IgG generated by imlifidase (antibody) |
| 0.6 µg/mL | rabbit antihuman erythrocyte antibody (Rockland; 209-4139), intact IgG |

Reference: paper PMC9213077
